± gives the uncertainty stated by the source.

A short description of the data set: amyloid nucleation score (Sup35N fusion, yeast selection) (log enrichment); library NNK1; higher = more nucleation; inactive = no reads after selection. In a few lines:
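Libraries of peptides of 20 random codons fused to Sup35N were expressed in psi-negative yeast and induced 24 hours with 100 μM copper sulfate. Selection was 7 days at 30°C on medium lacking adenine and uracil, and plasmid inserts were Illumina-sequenced before and after selection. Nucleation score is the DiMSum log enrichment of output over input reads, centred on the mode score of non-aggregating sequences, and sequences with under 100 input reads were left out.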
MVAEIYQAFWVC yielded an amyloid nucleation score of -0.349 ± 1.2.

Regarding RNNEDGRLKDRRRGLSHGQG, the amyloid nucleation score is -0.531 ± 0.31.

Consider DGSLKVELQR, for which the amyloid nucleation score came out at 1.14 ± 0.49.

For the substance SRDASLDRPSRRV, the amyloid nucleation score was -0.465 ± 0.49.

In turn, DLNCFAFVWVIIYTRDGWTI displayed an amyloid nucleation score of -0.353 ± 0.3.

CVLPYCS: the amyloid nucleation score was 0.297 ± 0.54.

Take RRAYIYWNRTCFFLVILLFQ: the amyloid nucleation score turned out to be 0.538 ± 0.84.

YNYDPRFVY: the amyloid nucleation score was -0.246 ± 0.28.

The substance CGWNFTVIHFSLDSVSHLLY registered an amyloid nucleation score of -0.568 ± 0.66.

In the case of HVSLVHLRYCRICSLLSMWG, the amyloid nucleation score came out at 2.77 ± 0.12.

Substance LWSTMICLVFMYPIILVNFT showed an amyloid nucleation score of 1.64 ± 0.36.

Regarding WMWGGGRWRRVPRRCMVVGR, the amyloid nucleation score was -0.054 ± 0.4.

FFRIARCHLEDRWVMIAGVL showed an amyloid nucleation score of 0.118 ± 0.68.

For SVVLQTHFAFSSFELKSKVA, the amyloid nucleation score was -0.54 ± 0.39.

Substance CVALGLLGRCVLLVAGGGWA yielded an amyloid nucleation score of 0.503 ± 0.54.

Consider LGALIYNSAFN, for which the amyloid nucleation score entry is “inactive”.

In turn, ICGYWSLKVVCRMCHPYGNG came in with an amyloid nucleation score of -1.17 ± 0.85.

In the case of LAEGASTL, the amyloid nucleation score was -0.217 ± 1.1.

For GLWFVC, the amyloid nucleation score turned out to be 0.374 ± 0.75.

ARYPRGDGVGDMSSRLIVVY had an amyloid nucleation score of 1.26 ± 0.2.

The substance HSVFVMVCSSCMVG came in with an amyloid nucleation score of 8.892 ± 0.068.

Substance IFYFVL had an amyloid nucleation score of 6.8 ± 0.074.

As for YYVDV, the amyloid nucleation score is -0.034 ± 0.88.

YRLRGGP: the amyloid nucleation score is -0.25 ± 1.2.

In turn, GAFRVVSQHRASDVS returned an amyloid nucleation score of -0.116 ± 0.41.

As to TNRPAPLPSYRTILCK, the amyloid nucleation score is 0.7 ± 0.97.

With DISDRGTDIFVSTPGSSMLS, the amyloid nucleation score is 0.503 ± 0.43.

SYMKQINTGKVFRAHYVLLA: the amyloid nucleation score came to 0.117 ± 1.1.

In turn, LHRRSDNGESFWTEGSITFV yielded an amyloid nucleation score of -0.086 ± 0.25.

Consider RVNLKGWKRHSIRRSNMYRV, for which the amyloid nucleation score entry is “inactive”.

For the substance VNNFIDCSSFCVYYLFKPGR, the amyloid nucleation score amounted to 7.671 ± 0.051.

Turning to LQQITGSCSFSGWGLK, the amyloid nucleation score turned out to be 0.091 ± 0.46.

On to PSTTLFWLVMRKHILQHTRR, for which the amyloid nucleation score is -0.215 ± 0.28.

AIRMLSISCNFMVVIL had an amyloid nucleation score of 0.837 ± 0.93.

With FPSLNNVNPSGFCSISSFRG, the amyloid nucleation score result is “inactive”.

For the substance YFNVSWID, the amyloid nucleation score is 1.02 ± 0.38.

As to SGLFMWYGSQTPYNIMMKQK, the amyloid nucleation score result was “inactive”.

As to DMVVRDQHL, the amyloid nucleation score was found to be 4.7 ± 0.066.

IWSSVQEFLGCMFWVIRINH yielded an amyloid nucleation score of 1.77 ± 0.45.

For the substance WCSKYCMMPSFPTMSRPVPL, the amyloid nucleation score is -0.426 ± 0.44.

With DKLICLMLEAASICYKVQSG, the amyloid nucleation score is -0.673 ± 0.57.

In turn, SMNHVFYYFIRMWTSM yielded an amyloid nucleation score of 0.156 ± 0.63.

Take LIRNINHWASYRFFCNCSSW: the amyloid nucleation score was 6.443 ± 0.06.

Turning to SNSFYREVNWGNRT, the amyloid nucleation score was determined as 0.216 ± 0.57.

Take RPKHTGTINYKHVHTNYVEG: the amyloid nucleation score came out at 1.36 ± 0.47.

LWLLYVIECHLGCYRTVLMG gave an amyloid nucleation score of -0.385 ± 0.93.

AYSCDLVELRVCAVSVWEEW: the amyloid nucleation score amounted to 1.42 ± 0.41.

In the case of HIRCHVRTGEAARHRQVAQY, the amyloid nucleation score came out at 0.136 ± 0.39.

The substance MYSHFCVYCNFYLSCNSSLI had an amyloid nucleation score of 7.034 ± 0.05.

As to RPHSGVIDDL, the amyloid nucleation score stood at 0.349 ± 0.51.

The substance LYGFLICLCDSYVRGH displayed an amyloid nucleation score of 0.213 ± 0.49.

Regarding SMEGLMSLMHSRISRFVFRV, the amyloid nucleation score was found to be 0.168 ± 1.2.

Take PVGNPLD: the amyloid nucleation score was -0.039 ± 0.18.

In turn, FVLLNLPLVKRVCRIVGYWG gave an amyloid nucleation score of -0.327 ± 0.51.

As for MCTLDLD, the amyloid nucleation score amounted to 0.824 ± 0.54.

With FAFRRSI, the amyloid nucleation score is 0.332 ± 0.9.

SDASHHHRYRESHDYCFFRK came in with an amyloid nucleation score of 0.272 ± 0.4.

For the substance YYWCAHPSCYPSVY, the amyloid nucleation score stood at 0.878 ± 0.58.

The substance FIVERDTHQGMHFGLMLING came in with an amyloid nucleation score of 0.286 ± 0.62.

Turning to NECLWSSFYLIICFLVCYYY, the amyloid nucleation score was found to be 0.278 ± 0.46.

Regarding KLKINCMYN, the amyloid nucleation score stood at 2.03 ± 0.45.

Substance ISHNQIWVRIGISRLFQHKV returned an amyloid nucleation score of 2 ± 0.35.

With SNNELSTMTRL, the amyloid nucleation score is -1.01 ± 1.2.

In the case of IGYFWCCRLETANIVFNFVW, the amyloid nucleation score was -0.724 ± 1.3.

Turning to VDCLFLKHHFFLTVSSMVRN, the amyloid nucleation score was found to be 1.43 ± 0.84.

In the case of WVTQVDWSGRR, the amyloid nucleation score is -0.348 ± 0.77.

The substance CASMMPDSVSVRTKSNVT came in with an amyloid nucleation score of -1.02 ± 1.3.

AILRSAM returned an amyloid nucleation score of 0.284 ± 0.46.

In the case of VLMRSEMESRFNEGRSTQGC, the amyloid nucleation score is 0.361 ± 0.3.

For the substance MFSYDFGMCGFYN, the amyloid nucleation score was determined as 0.971 ± 0.29.

In turn, ITLIGQHRFLLVFSTNQLNH gave an amyloid nucleation score of 0.46 ± 0.3.

The substance YRDDYACFLRPYPARCG showed an amyloid nucleation score of -0.141 ± 0.92.

Regarding RLFITCRAL, the amyloid nucleation score stood at 2.52 ± 0.18.

Consider NKYVVETDH, for which the amyloid nucleation score was -0.604 ± 1.1.

Substance DKNGIPYISCEYNQM yielded an amyloid nucleation score of -0.46 ± 0.72.

Substance PFEYLVRLIYCEDVAYLGTG showed an amyloid nucleation score of -0.148 ± 0.62.

As for RVGAPFNLVRSCSGATLCEV, the amyloid nucleation score is -0.023 ± 0.63.

Consider EFKLDNFQIVGYLLLTRRLI, for which the amyloid nucleation score is 0.222 ± 0.32.

Substance SLRKKVSSVCSC showed an amyloid nucleation score of 0.838 ± 0.54.

Consider FYPYN, for which the amyloid nucleation score came to 0.743 ± 0.79.

The substance LDCHD showed an amyloid nucleation score of -0.246 ± 0.44.

WTLCMPKCGWRQSFSLRSRR displayed an amyloid nucleation score of -0.294 ± 0.47.

MSVMLIS showed an amyloid nucleation score of 0.126 ± 0.44.

Substance EDLRVTGAKGYGCAECRACV displayed an amyloid nucleation score of -0.186 ± 1.9.

Take NNACMSSYVVGYRSIVMVK: the amyloid nucleation score stood at 0.558 ± 1.1.

On to VNHIWWEFQGVSAYSNFRRD, for which the amyloid nucleation score was -0.417 ± 1.5.

VSGIVPDDLSVFDVHSKYV: the amyloid nucleation score amounted to 0.455 ± 0.33.

Consider YSQYVVTSFTSLREVS, for which the amyloid nucleation score was -0.332 ± 0.25.

As for RKSPATVVFSRPSLWLYGRR, the amyloid nucleation score is 2.97 ± 0.094.

With LIVNLDMTSVLHVSGELR, the amyloid nucleation score is 5.22 ± 0.078.

YVPSRSGYIDFAGRNNRYSI showed an amyloid nucleation score of -0.401 ± 0.73.

Consider SHLLLHSLWSDPGIIVDLYT, for which the amyloid nucleation score entry was “inactive”.

Regarding SILCESFVGCLDAMRDRVYY, the amyloid nucleation score was -0.036 ± 0.61.

Turning to FDSQDSISFGDGTFKSVWPM, the amyloid nucleation score was 0.177 ± 0.31.

As for RTCHDWVIEGSMRILTARIM, the amyloid nucleation score is -1.29 ± 1.8.

DRYYAGF registered an amyloid nucleation score of 0.464 ± 0.55.

Turning to TSHPGRCRGYASRASSEVFR, the amyloid nucleation score is -0.038 ± 0.43.

Consider VSYNVRIGWAVYN, for which the amyloid nucleation score was found to be 0.89 ± 0.27.

In turn, SIFSSNCNL returned an amyloid nucleation score of -0.36 ± 0.24.

For GGSMGHPGTLMERSYNLVVA, the amyloid nucleation score worked out at 0.951 ± 0.46.

For GPNTPSWYGCL, the amyloid nucleation score came out at 0.196 ± 0.6.

DTVSLWLPARMTNDNFQDLS showed an amyloid nucleation score of 0.399 ± 0.22.

GLICNIDVRMRFVFMVRGSP gave an amyloid nucleation score of 2.45 ± 0.21.

CMSSLLFD gave an amyloid nucleation score of 0.921 ± 0.49.

On to YSLLVHIFMLLWSYDCLTVT, for which the amyloid nucleation score is -1.54 ± 2.7.

QIIEPRARENGRINMMMVGG came in with an amyloid nucleation score of 0.481 ± 0.61.

QVWSPHSVSKFGPGPPVTEA came in with an amyloid nucleation score of -0.388 ± 1.4.

Consider SAVQGCNGRCCYFGRGWWSG, for which the amyloid nucleation score came to 3.4 ± 0.083.

TWQNRTSLIEVTSYMFHGWV came in with an amyloid nucleation score of 0.294 ± 0.59.

VFVVNTTESWHNLALFWSSR gave an amyloid nucleation score of 0.382 ± 0.45.

KLCQVRHVSWIMSCQRYKQD yielded an amyloid nucleation score of 0.058 ± 0.49.

For the substance RNVLWMILMYRCRSGGLCNG, the amyloid nucleation score came to 0.737 ± 0.52.

Consider IYVLYQIERSVK, for which the amyloid nucleation score is -0.154 ± 0.58.

On to FIPQFYSVAMKLGCVRFVVL, for which the amyloid nucleation score came out at 0.577 ± 0.56.

With WSTQSLCFGPT, the amyloid nucleation score came out at 0.012 ± 0.63.

As to LRFRMNSLLVKWFFP, the amyloid nucleation score is -0.199 ± 0.34.

As for YKNIPFTYGSFVLASYMSRK, the amyloid nucleation score came out at 0.368 ± 0.63.

As to HMLASNSRWNTAKGINWGFH, the amyloid nucleation score is 0.758 ± 0.7.

VWELGPFCDLEVRYV came in with an amyloid nucleation score of 0.531 ± 0.52.

For CMDKCVCERHPYL, the amyloid nucleation score was -0.345 ± 1.7.

LSTTWDFESMGVRVSREYPG came in with an amyloid nucleation score of 0.351 ± 0.58.

In turn, DNMFDTWLSGATV had an amyloid nucleation score of -0.554 ± 0.66.

Consider EITWCF, for which the amyloid nucleation score stood at 0.485 ± 0.72.

Substance SCSYLSKYTYRREMVYGNEV gave an amyloid nucleation score of 0.002 ± 0.22.

In the case of SCDMAEFSEDLTLCLLNHK, the amyloid nucleation score is -0.651 ± 1.7.

Regarding NFRHFILVYLMPFT, the amyloid nucleation score result is “inactive”.

For LNTVSEITVVAKLNF, the amyloid nucleation score came to 2.3 ± 0.12.

RANSGNVTFMVRPAFMVVLK: the amyloid nucleation score is -0.389 ± 0.78.

Substance WVARVMCRKNSYSMLIMWIC had an amyloid nucleation score of -0.102 ± 0.22.

For FWSLRMLMLADSSDKCVDYC, the amyloid nucleation score result was “inactive”.

For RRMVTCLQLIVRNLRSCACC, the amyloid nucleation score result is “inactive”.

LTCKMDIDKVWVGDMLYS returned an amyloid nucleation score of -0.677 ± 0.62.

In the case of FSMVLSSTMDLRRELLWNSV, the amyloid nucleation score was -0.299 ± 0.73.

For the substance RWQAFGTELYGTSWSFREYG, the amyloid nucleation score is 0.148 ± 0.47.

In the case of SDVLYIFTYMDKCQRSRLGV, the amyloid nucleation score is 0.096 ± 0.26.

For the substance QELWHMYSIYYVFRTGDHIY, the amyloid nucleation score is -0.163 ± 0.27.

Consider GEYRDGFSLRVMGLHGSLNH, for which the amyloid nucleation score was found to be 1.07 ± 0.58.

In the case of FVRVLTFPYPMNVFIRLSLA, the amyloid nucleation score result was “inactive”.

For the substance HFAGCNSIDLQCNIRCKNIR, the amyloid nucleation score was 5.469 ± 0.048.

On to FYVMSMLIM, for which the amyloid nucleation score stood at 0.029 ± 0.47.

For the origin of these results see the supplement of paper PMC12042874.
